Test results as given in US12077763B2, “RNA-based control of powdery mildew” (Greenlight Biosciences, Inc., priority 2021, dated 2024).

B1: GS1843: dsRNA trigger SEQ ID NO 184; gene target Ubiquitin-like protein SMT3 (nucleic acid)
chain: ATAAACCTGCCTTAGATACTAAATCAGGAGTTGGCGTTTTATGGGATTCTATTAGAGTTGTAAATTTCAAAGATACTTTGATTGGATTTTCTTAGATTAACCTCGACGAGAATCGATTTTCTAGATTTTTGGCTAAATCATACGAATTCAAATTTTCTTAGTAAATTGGACAATGCGCGCCGTAAACATATCGGGATGAAATTTTTTAATAATAAAATCAATTGAAAATAATAAATTTATATCCTATTTAATCACCGCCAACAAGAAGTTCGTTTTCCTTACCTACCTAGAATTAGTTTTTAGATATCGTTCGATGTTTCGTGAATTTCAAATCCAGATGTTGCCGCCGATTTGTTCTTGATGCACCTCTAGCGTATCTCCATCTGCCATATCGAGAAACTCAGGACTATCAGTTTGTTGAACACGACTCCCTTCAAATAAGAATCGAACAGAAGAAAGTGATTTCCCTTGCCTCTCACAGAACGCGTCCATCAATTTCTTAAGTGGTGTTGTTCGTTTAATTTTGAAGAAGACTTCATTATTGTTATCTGTAACCTTGATATTTAAATGTTCA
B2: GS1839: dsRNA trigger SEQ ID NO 194; gene target Thioredoxin (nucleic acid)
chain: CTGACCGGGGCGCTATTACGATTAAATGAGCTGTTTTCCCCAGCGCTATAAGCATCCAGGGAGAATAAGGTTACAAAATATAATCCGAAAAAAGATAAAAAAGTATTTATCAATTGTTTCAAATCGAATGGCTTAGACAACTGTGTACTCGGACTCTTAGTACTCCCTAGAGTTCGTCCTTCTGAGGTATATGATAGACCTTCTAGGCCTGCAAGTCTGATGACAGACTCGATAGCAGTTCTTAAAGTAGACTGATCAGCGCCACGGATCGTATTGGCAATAGAGCCAGATCGAAAGATAATGAAGCTGGGAAGTGCTCTAACTCCATAACGCTGAGAAATATCCTGGTGATTGTCTACATTGACCTTGACAAAGGTGATCCTGTTCGGTTTCGAGTATTTGGAAGCAAGACTTTCGAAGGTGGGAGCAATAGCATTACATGGGCCGCACCAGTCGGCATAAACTAACCCAGCCATTAGTAGATTTAGTTAATCGGTGACGACTACTTTTGAAGAGTTCAAAATTTTGTCAAACTGAGATGAGGATCTGATACGGATAGACATGCTTTCTTTCTGTTCAA
B3: GS1846: dsRNA trigger SEQ ID NO 135; gene target Calcium-transporting ATPase 2 (nucleic acid)
chain: AGACCTTCGGGTACTGCTACAACAATTACAGTGACTGTCACAATGAAAATTTGCAGAAATTGCTGACCTTTAACGGTTGGTGTAGCATCATTGTTAGGTAGTCTAGCCAGAAACTCAATGAATAAGACTGTAAATAATAATAGACCAGCTCCTCCTCCAAGTTTAGCTATATACTCTGCTAAATTGTTCAATTTTGACTGTAATGGCGTGATTTCCGGATCTTCACGGAGCGACATTAATGTTTTCCCATAACTAGAGTTTACACCAGTTGAAGTAACTAAAAATGTACCCACACCTTCAGTGACAGTAGCCCCAGACAAAATAAATGGATCTAATTTTTCTAGCTTTTCGTGGTTCGAGATAGCAGCATAAACTTGGTCTGCCGGATGCTTGCGAATAATATCGGACTCGCCAGTTATTTGAGACTCATCACATCTAAGATTATGCCCTCCAATAAAAATTCCATCAACAGGAATCATGTCGCCAGGTTCAAGATGTAAAACATCGCCTACAAGAACATCATAGATGGATATTTCCGAAGTTTTCCCGGAACGAGTCACATTTACAT
B4: GS1845: dsRNA trigger SEQ ID NO 191; gene target Singe-stranded TG1-3 DNA-binding protein (nucleic acid)
chain: CAGATACTGCCCAAACTACCTTCATAATTTTCCGAGCTACACACCAGAACCTCGAGTATTGACATTACGGAATCATCTCACCATTTAAAAGTTGCGGTTTAACTTAAGCTGTAGCCGCAACAGTTTCAGCTGTCCCAGCTAGTCCTTCTGATTGAAGTTTATCATTAGTAATCCCTTTAGCGATGGCGCCATTAGTACCTTCGGTTGAGTTGCCAACATTAGATACTTCGCCAGCACCATCAGATACATGTGTAGTTAATTCTTCAGAGGTCTTGTCCGGACTATCTATTGCGATCTTTACTGCAATCTCACGACCTTGAACTTCTTTTCCATTCATTTCGGCAACAGCCCTATTTTGAAGTTCATTAGATGCTAAGTTCACAAAGCCAAACCCACGGCCTTTCCGAGGTTCGTTGCGGGCCTGAAGCTTTTTAACCATGAATTTTGGAATAGGACGCAGAGCAATTTTGGCAGATACTGGTTCGTAATCGGCAAATAGTTCCTTTAACTTTTCCTCGGATAAGTCATAAGGAAGATTGGCAACCATAACTTTTGTCTTAGATGGAAC
B5: GS1842: dsRNA trigger SEQ ID NO 130; gene target AP-1 complex subunit gamma-1 (nucleic acid)
chain: GCCAATGCCTTGAGCGTCTGAACAAGACTTCCAGTGAGTGGTCTAAACTTCTCTACTATATTCTCTTCACCTTCTTCATCAGCTTCTATGTCGGCCTCGCAAAGGCTAGTGACAAGTGTCAAGCCACAAAGGAGAACTCCATGATTTCGATCTGAAATAAGTGTTTCTGCTTTTTCGAAGAAATGCTCTTGAAGATCTGGCACTTTCTTGCAAATACGCATAGCACATAGAGCAGCCTTCTTACGAATATATGGGTTTGCTGTGGAAAGGAGATTTTCTATCTCTGGAAAGAGATCTCTTGACATTTCGATTGATGCGATGTTGCCTAGCGTACAGAGGGCTAGTCCGACTATGTATTGATTAGAGTGATTGAGATCGTTCTTTAAGGAGTTTGTAACTAAGGTAAGAACCTCTTGATTTTCGTCTAAAAGCAACATGGTCCCTAAGTAACCAAGGCGTTTGTCGGCGAAACGAGGAGACGCAAGTAATTTAAGGCATTCTATCTGGCCAAAGTGGGTTCTTTCCCCAAGTGTGAAGAGATATAACAACTTTGCAACGTTATTACGTCTGACATTG
B6: GS1836: dsRNA trigger SEQ ID NO 121; gene target Integral membrane protein/Pth11 homolog (nucleic acid)
DNA: GCTTTTCAATGTCGACCTGCAAACTACCTTTGGCAACAACTTGATTCAAAATTATATTCTGGAAGCTGTTTGAGCAAGGAGAGTATAGCCGATATTATATATGCTCATGCATCTATAAGTTGTTTAATTGACTGGATCTTTGGGATATTACCGATTTTAATTCTCTGGAAACTCGACATGAAGTTCAAGACCAAGCTCTCTATAATGATCGTTCTTTCATTAAGTATAGTAGCCTCTATAGCTACTGTTATACGTATTATTTACCTCCATATTCTTAAGAATGTGTCACAATCCGGTTGGGATGGTTTTGGATTAATAAAATGGTCTTTACTAGAACCAGCCATTGCCTTGACAGCTGCAAATATTGCAACTCTCAGGCCACTTACGCAAAAGTTATTTTCAAAAAAACGACGACCATCTAAATCACAACCACCTAAGCTTTCTCTCAATGCTATTCGGGGCTTAAGTCGGAAGTCTTCAGTATGTTGTTCAAGTGAATTTGCAGATATGTTAGGGCTAGCAGTATCACCTGGCGTGAAAACTCGAGTCTATGCTGATAGAAGACTTGATAACACTATCCAAAAAAGA
B7: GS1837: dsRNA trigger SEQ ID NO 199; gene target UDP-glucose: glycoprotein glucosyltransferase 1 (nucleic acid)
DNA: AAAATCTAGGCAAATCCTTGAAAAACTCAGAGCTTTTTTTTTCAATAAAATTCAAGTCAAAAAAATTCAGATCTTTTCGATTTTCAGGAATAATCAATTTATTTCTGCGATTTATCGCTTGATTTAAAAATATACTAGGCACCCAAAAATCTTGACTTCTCACATTTTCTGTCCCAAGGACAATAGTTTGCTGAATTAATTGTAGATCTGTATATATCTGTTGACTCATTTTCTGAAGCCAGAATTCATCTTTCGGTATAACAACGCCATTAATGATAACTGGGGGAACAAGGTCATCTGCACAAATCCTGTCTACCCATTTTTGGGACGATTGAATTCGACTCTCGAGCTCATCTGATTTCAAAACTTCGTCGAAAATTATTCGGGTTTTATTAGTCTTAATTTTTGCTTTCTGGGTGATTTGGTCGAATACATCCTTACTGTTTAAGCTAAGCTTTGATTCATTTTGTGACCGTAAATATGCTATTGCAGTTTGTAATCCATAAATTTCAATAAGGTGATAAATTACTTTTGCTTCGATTGCAGCATTTGAGTTTCTGATGACGGGAATGAGACCAATTCGGAT
B8: GS1840: dsRNA trigger SEQ ID NO 196; gene target Ubiquitin-conjugating enzyme E2-16 kDa (nucleic acid)
chain: TTGACTCTAGTTTTAAATACACATAAATGTTTGCTCAAACTATCTAGAGATTTTGCGTCTTGTAAAAAAATACTATATATGAAATATTATTGTGTACTATTGATGTATGAACTCGATGTGAGGTTTAAAATCTTATTGCTGCCATAGATAATCAAAAAATTATATTAATCCTATCCTTTTGGAACGATTCCTAATAGCAGATGTGTGTTCGTCTCTGTCCTTTGAATGACTCATTTCAGTCCAAATCTTCGTTGCTAATTCATCCACTCATTTCATAGCATATTTTTTTGTCGCTTTAACCGCCTCTTCATTAAATTCATTCCTGTTATTCCTGTATCTATCTGCTAATGCCGTTTCTACCGCATCATCAAGTACCGGCTCGGTCAGCATTTGCTGCGTTGCCATCAAAATATTGATGATTCGAGATGATGGTTTCCAGGCATCTGGTTTGAGAGCACCAATACACATACTACCCTGCTCATCAAAAGTCACATTTGGATGGTAGATACGAGTTTTGAACGATAGTTTTGGTGGCTTAAAAGGATAGTCTGAGGGGAGCGTTAAAAGAAGTTCAAAGTTA

These molecules were tested on E. necator (assay: Leaf disc assay, dry inoculum (settling tower), decrease in disease severity / hyphal growth (Example 2)). Details: decrease in disease severity (hyphal growth) relative to untreated control; time point 1 (untreated control hyphal growth ≥50%); value ± SE.

Molecule | % decrease =/− SE TP1 [%]
B1 | 20 ± 5
B2 | 20 ± 7
B3 | 22 ± 5
B4 | 23 ± 6
B5 | 6 ± 7
B6 | 23 ± 6
B7 | 15 ± 7
B8 | 21 ± 6

Same assay, conditions: decrease in disease severity (hyphal growth) relative to untreated control; time point 2; value ± SE

Molecule | % decrease =/− SE TP2 [%]
B1 | 16 ± 8
B2 | 18 ± 7
B4 | 24 ± 6
B6 | 22 ± 6
B7 | 18 ± 8
B8 | 11 ± 10
